Molecular target: camel APN (aminopeptidase N) (camel)

Question: For “hCoV/229E-inf1 spike protein (S) (from UniProt P15423 16-1173) (natural protein)”, which pseudovirus entry, percentage of usage (min-max scaled), without hTMPRSS2 is on record?
Answer: 3%
